In patent US20210363269A1 (ALX ONCOLOGY, published 2021):
Numbering of substitutions follows the chain as printed. Names may count otherwise.

T1: NOD mouse SIRP-α (mouse (NOD strain))
T1 chain: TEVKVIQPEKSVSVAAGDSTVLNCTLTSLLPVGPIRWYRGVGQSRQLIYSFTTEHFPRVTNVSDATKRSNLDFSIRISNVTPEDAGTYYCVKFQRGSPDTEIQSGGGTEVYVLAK

T2: BALBc mouse SIRP-α (mouse (BALB/c strain))
T2 chain: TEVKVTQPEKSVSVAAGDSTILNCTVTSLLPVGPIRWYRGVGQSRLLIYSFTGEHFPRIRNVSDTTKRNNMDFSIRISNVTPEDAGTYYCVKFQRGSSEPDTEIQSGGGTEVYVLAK

T3: mouse 129 SIRP-α (mouse (129 strain), UniProt P97797 32-150)
T3 construct: also called m129
T3 chain: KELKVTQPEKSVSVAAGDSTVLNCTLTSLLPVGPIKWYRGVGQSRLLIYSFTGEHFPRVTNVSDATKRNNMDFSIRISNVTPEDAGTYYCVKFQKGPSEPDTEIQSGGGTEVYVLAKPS

T4: cynomolgus SIRP-α (cynomolgus monkey, UniProt Q5TFQ8 30-148 (human entry), limits assumed)
T4 construct: also called cyno1
T4 chain: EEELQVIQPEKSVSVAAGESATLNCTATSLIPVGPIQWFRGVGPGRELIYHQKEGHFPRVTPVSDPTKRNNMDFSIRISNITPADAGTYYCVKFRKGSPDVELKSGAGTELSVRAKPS

T5: BL6 mouse SIRP-α (mouse (C57BL/6 strain), UniProt P97797 32-148)
T5 construct: also called C57BL/6
T5 sequence: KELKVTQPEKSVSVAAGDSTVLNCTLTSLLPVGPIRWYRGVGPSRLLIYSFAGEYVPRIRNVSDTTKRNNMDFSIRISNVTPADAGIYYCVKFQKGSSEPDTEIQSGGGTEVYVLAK

T6: cynomolgus SIRP-α D1 domain (SEQ ID NO:11) (cynomolgus, UniProt Q5TFQ8 30-148 (human entry), limits assumed)
T6 construct: also called cyno1
T6 chain: T4 chain

B1: antibody 119 (antibody, V domains shown)
VH: DVQLLESGGGVVQPGGSLRLSCAASGFSFSNFAMTWVRQAPGEGLEWVSTIGSGDTYYADSVKGRFTISRDNSKNTLYLQMNSLRAEDTAVYYCAKDSTVSWSGDFFDYWGLGTLVTVSS
VL: EIVLTQSPATLSVSPGERATFSCRASQNVKNDLAWYQQRPGQAPRLLIYAARIRETGIPERFSGSGSGTEFTLTITSLQSEDFAVYYCQQYYDWPPFTFGGGTKVEIK
notes: also called AB119; S119
B2: Hum8/AB21_HC_Mutall (antibody, V domains shown)
VH: EVQLVESGGGVVQPGGSLRLSCAASGFTFSSNAMSWVRQAPGKGLEWVAGISAGGSDTYYPASVKGRFTISRDNSKNTLYLQMNSLRAEDTAVYYCARETWNHLFDYWGQGTLVTVSS
VL: SYELTQPPSVSVSPGQTARITCSGGAYSSYYYAWYQQKPGQAPVLVIYSDSKRPSGIPERFSGSSSGTTVTLTISGVQAEDEADYYCGGYDQSSYTNPFGGGTKLTVL
notes: also called Hum8/AB21mutall
B3: antibody 119 variant, light chain Mut / heavy chain Mut (antibody, V domains shown)
VH: B1 VH with D1E, M34V, E43K, L112Q
VL: B1 VL with F21L, R39K, E60A, T76S
B4: antibody 119 variant, light chain Mut / heavy chain Mut_V34M (antibody, V domains shown)
VH: B1 VH with D1E, E43K, L112Q
VL: B1 VL with F21L, R39K, E60A, T76S
B5: antibody 135 variant, light chain wt / heavy chain Mut_V34M (antibody, V domains shown)
VH: B1 VH with D1E, L5V, N31I, F32Y, T35S, E43K, S53A, G54D, S101G, L112Q
VL: EIVLTQSPATLSVSPGERVTFSCRASQNVRSDIAWYQQKPGQAPRLLIYAASSRDTGIPDRFSGSGSGTDFTLTISSLQSEDFGVYYCQQYYDWPPFTFGGGTKVEIK
B6: antibody 135 variant, light chain Mut / heavy chain Mut (antibody, V domains shown)
VH: EVQLVESGGGVVQPGGSLRLSCAASGFSFSIYAVSWVRQAPGKGLEWVSTIGADDTYYADSVKGRFTISRDNSKNTLYLQMNSLRAEDTAVYYCAKDSTVGWSGDFFDYWGQGTLVTVSS
VL: B5 VL with F21L, D60A
B7: antibody 136 variant, light chain wt / heavy chain Mut (antibody, V domains shown)
VH: EVQLVESGGGVVQPGRSLRLSCAASGFTFSSYDVNWVRQAPGKGLEWVSLISGSGEIIYYADSVKGRFTISRDNSKNTLYLQMNSLRAEDTAVYYCAKENNRYRFFDDWGQGTLVTVSS
VL: ETVLTQSPGTLTLSPGERATLTCRASQSVYTYLAWYQEKPGQAPRLLIYGASSRATGIPDRFSGSGSGTEFTLTISSLQSEDFAVYYCQQYYDRPPLTFGGGTKVEIK
B8: antibody 136 variant, light chain Mut_I2T / heavy chain Mut (antibody, V domains shown)
VH: B7 VH
VL: B7 VL with T12S, T22S, E38Q
B9: antibody 136 variant, light chain Mut_I2T / heavy chain Mut_V34M (antibody, V domains shown)
VH: B7 VH with V34M
VL: B7 VL with T12S, T22S, E38Q
B10: antibody 119 variant wt/mut (VL wt / VH mut) (antibody, human IgG1, V domains shown)
VH: B1 VH with D1E, M34V, E43K, L112Q
VL: B1 VL
notes: Human IgG1 with L234A/L235A/G237A/N297A; Labels are in the order VL/VH
B11: antibody 135 variant wt/mut V34M (antibody, human IgG1, V domains shown)
VH: B6 VH with V34M
VL: B5 VL
notes: as for B10

Molecular target: T7, human SIRP-α v1 (human, UniProt P78324 31-149)
T7 construct: also called Human v1; Human V1
Test: SPR
Outline: (§1)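 Apparent association and dissociation rate constants, and KD as kd/ka, were obtained by global fitting of double-referenced data to a simple Langmuir model. Measurements used a ProteOn XPR36 biosensor at 25° C in PBS pH 7.4 with 0.01% Tween-20, with SIRP analytes injected in one-shot kinetic mode at nominal concentrations from A280 absorbance. The purified antibodies were either amine-coupled to a GLC chip or held on an NLC chip by biotinylated Protein A.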

T7 sequence (P78324 31-149 limits assumed): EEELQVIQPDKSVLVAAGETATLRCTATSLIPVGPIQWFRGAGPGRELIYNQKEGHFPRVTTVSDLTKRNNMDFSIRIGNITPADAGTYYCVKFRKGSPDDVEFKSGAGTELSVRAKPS

| Binder | Kd |
| --- | --- |
| B1 | 0.183 nM |

Molecular target: T8, human SIRP-α v2 (human)
T8 construct: also called Human v2; Human V2
Test: SPR
Outline: as §1

T8 sequence (chain, as listed by the source limits assumed): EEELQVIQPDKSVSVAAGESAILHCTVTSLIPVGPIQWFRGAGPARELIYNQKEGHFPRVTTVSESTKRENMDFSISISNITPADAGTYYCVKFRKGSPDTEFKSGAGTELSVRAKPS

| Binder | Kd |
| --- | --- |
| B1 | 0.0799 nM |

Molecular target: T7, human SIRP-α v1
Test: SPR
Remark: another data set of the same source
Outline: as §1

| Binder | Kd |
| --- | --- |
| B2 | 0.0201 nM |

Molecular target: T1, NOD mouse SIRP-α
Test: SPR
Outline: as §1

| Binder | Kd |
| --- | --- |
| B2 | 27.8 nM |

Molecular target: T2, BALBc mouse SIRP-α
Test: SPR
Outline: as §1

| Binder | Kd |
| --- | --- |
| B2 | 71.2 nM |

Molecular target: T3, mouse 129 SIRP-α
Test: SPR Koff +/-
Outline: as §1

| Binder | binding result |
| --- | --- |
| B1 | no binding |

Molecular target: T7, human SIRP-α v1
Test: SPR, antibody on GLC chip
Outline: (§2)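 On a ProteOn XPR36 biosensor, Protein A-purified antibodies were amine-coupled to a GLC chip at about ~1000 RU after dilution to 80 nM in 10 mM sodium acetate pH 4.5. SIRP analytes at 100, 33, 11, 3.7, 1.2 and 0 nM were then injected one-shot in PBS pH 7.4 containing 0.01% Tween-20 at 25° C, with 90 s of association at 100 μL/min and 1200 s of dissociation. The dissociation constant (KD) was calculated as kd/ka from a global Langmuir fit of double-referenced data.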

| Binder | Kd |
| --- | --- |
| B1 | 0.183 nM |
| B3 | 0.317 nM |
| B4 | 0.215 nM |
| B5 | 0.15 nM |
| B6 | 0.192 nM |
| B7 | 0.558 nM |
| B8 | 0.717 nM |
| B9 | 0.551 nM |

Molecular target: T8, human SIRP-α v2
Test: SPR, antibody on GLC chip
Outline: as §2

| Binder | Kd |
| --- | --- |
| B1 | 0.0682 nM |
| B3 | 0.0875 nM |
| B4 | 0.0688 nM |
| B5 | 0.0161 nM |
| B6 | 0.0175 nM |
| B7 | 1.74 nM |
| B8 | 1.86 nM |
| B9 | 1.74 nM |

Molecular target: T4, cynomolgus SIRP-α
Test: SPR, antibody on GLC chip
Outline: as §2

| Binder | Kd |
| --- | --- |
| B1 | 0.112 nM |
| B3 | 0.195 nM |
| B4 | 0.118 nM |
| B5 | 0.0794 nM |
| B6 | 0.127 nM |
| B9 | 2.11 nM |

Molecular target: T1, NOD mouse SIRP-α
Test: SPR, antibody on GLC chip
Outline: as §2

| Binder | binding result | Kd |
| --- | --- | --- |
| B3 | no binding |  |
| B4 | no binding |  |
| B5 | no binding |  |
| B6 | no binding |  |
| B7 |  | 0.678 nM |
| B8 |  | 0.68 nM |
| B9 |  | 0.596 nM |

Molecular target: T5, BL6 mouse SIRP-α
Test: SPR, antibody on GLC chip
Outline: as §2

| Binder | binding result | Kd |
| --- | --- | --- |
| B1 | no binding |  |
| B3 | no binding |  |
| B4 | no binding |  |
| B5 | no binding |  |
| B6 | no binding |  |
| B7 |  | 23.1 nM |
| B8 |  | 15.3 nM |
| B9 |  | 13.8 nM |

Molecular target: T2, BALBc mouse SIRP-α
Test: SPR, antibody on GLC chip
Outline: as §2

| Binder | binding result | Kd |
| --- | --- | --- |
| B1 | no binding |  |
| B3 | no binding |  |
| B4 | no binding |  |
| B5 | no binding |  |
| B6 | no binding |  |
| B7 |  | 0.416 nM |
| B8 |  | 0.422 nM |
| B9 |  | 0.361 nM |

Molecular target: T9, human SIRPβ isoform 1 (human, UniProt O00241 30-148)
T9 construct: also called Beta; Human SIRPb
Test: SPR, antibody on GLC chip
Outline: as §2

T9 sequence (O00241 30-148 limits assumed): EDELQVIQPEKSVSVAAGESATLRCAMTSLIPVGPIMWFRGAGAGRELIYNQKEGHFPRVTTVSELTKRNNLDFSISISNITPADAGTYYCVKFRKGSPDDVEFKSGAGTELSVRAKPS

| Binder | Kd |
| --- | --- |
| B1 | 0.342 nM |
| B3 | 0.46 nM |
| B4 | 0.337 nM |
| B5 | 0.16 nM |
| B6 | 0.188 nM |
| B7 | 3.54 nM |
| B8 | 3.16 nM |
| B9 | 2.22 nM |

Molecular target: T10, human SIRPγ isoform 1 (human, UniProt Q9P1W8 29-147)
T10 construct: also called Gamma; Human SIRPg
Test: SPR, antibody on GLC chip
Outline: as §2

T10 sequence (Q9P1W8 29-147 limits assumed): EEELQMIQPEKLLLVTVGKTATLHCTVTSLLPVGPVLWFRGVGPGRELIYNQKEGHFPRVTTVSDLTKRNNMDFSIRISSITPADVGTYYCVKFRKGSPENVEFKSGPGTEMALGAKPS

| Binder | Kd |
| --- | --- |
| B1 | 0.267 nM |
| B3 | 0.336 nM |
| B4 | 0.263 nM |
| B5 | 0.533 nM |
| B6 | 0.733 nM |
| B7 | 16.5 nM |
| B8 | 40 nM |
| B9 | 33.5 nM |

Molecular target: T11, human SIRP-α v1 D1 domain (human, UniProt P78324 31-149)
T11 construct: also called human v1; human α v1
Test: SPR, antibody immobilised on GLC chip
Protocol: (§3) All experiments were performed at 25° C. using a SPR-based ProteOn XPR36 biosensor (BioRad, Inc, Hercules, Calif.) equipped with GLC or NLC sensor chips. […] Purification was carried out by standard Protein A affinity column chromatography and eluted antibodies were stored in PBS buffer.
(§4) For the method using GLC chip, the analytes were injected and flowed over anti-SIRPα antibodies immobilized (˜1000 RUs) on GLC chips using Proteon™ Amine Coupling Kit. For the immobilization step, GLC chip was activated with EDAC/Sulpho-NHS 1:1 (Biorad) diluted 1/100 for 300 s at 25 μL/min. Anti-SIRPα antibodies were diluted to 80 nM concentration in 10 mM sodium acetate buffer pH 4.5 and immobilized to the chip at 30 μL/min for 50 s. Chip was inactivated with ethanolamine for 300 s at 25 μL/min. The analytes (e.g., SIRP-α from different species, SIRP-β, SIRP-γ) were injected in a “one-shot” kinetic mode at nominal concentrations of 100, 33, 11, 3.7, 1.2 and 0 nM. Association times were monitored for 90 s at 100 μL/min, and dissociation times were monitored for 1200 s. The surfaces were regenerated with a 2:1 v/v blend of Pierce IgG elution buffer/4M NaCl.

T11 sequence (P78324 31-149 limits assumed): as the sequence (P78324 31-149 limits assumed) above

| Binder | Kd |
| --- | --- |
| B10 | 0.254 nM |
| B11 | 0.15 nM |

Molecular target: T12, human SIRP-α v2 D1 domain (human)
T12 construct: also called human v2; human α v2
Test: SPR, antibody immobilised on GLC chip
Protocol: as §3, §4

T12 sequence (chain, as listed by the source limits assumed): as the sequence (chain, as listed by the source limits assumed) above

| Binder | Kd |
| --- | --- |
| B10 | 0.0694 nM |
| B11 | 0.0161 nM |

Molecular target: T6, cynomolgus SIRP-α D1 domain (SEQ ID …)
Test: SPR, antibody immobilised on GLC chip
Protocol: as §3, §4

| Binder | Kd |
| --- | --- |
| B10 | 0.155 nM |
| B11 | 0.0794 nM |
